Molecular target: NifDK complex purified from Azotobacter vinelandii (Azotobacter vinelandii) (UniProt P07328)
Assay: cell-based or functional assay

Sequence of UniProt P07328 (P07328 2-492 limits assumed, chain 1 of 2): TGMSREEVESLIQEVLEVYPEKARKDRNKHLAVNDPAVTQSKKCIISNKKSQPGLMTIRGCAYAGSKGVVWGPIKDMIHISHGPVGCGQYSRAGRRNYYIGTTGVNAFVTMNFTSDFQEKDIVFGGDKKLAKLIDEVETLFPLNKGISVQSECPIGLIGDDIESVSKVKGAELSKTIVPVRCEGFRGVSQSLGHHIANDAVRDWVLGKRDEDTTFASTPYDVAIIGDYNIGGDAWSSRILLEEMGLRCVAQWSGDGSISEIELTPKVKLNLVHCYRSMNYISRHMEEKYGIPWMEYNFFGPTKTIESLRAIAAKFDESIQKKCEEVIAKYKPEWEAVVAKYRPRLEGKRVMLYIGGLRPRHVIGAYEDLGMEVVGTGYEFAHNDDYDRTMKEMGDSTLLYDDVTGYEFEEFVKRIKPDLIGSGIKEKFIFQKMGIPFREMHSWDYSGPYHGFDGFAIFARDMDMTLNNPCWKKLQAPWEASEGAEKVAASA
Sequence of UniProt P07328 (P07329 2-523 limits assumed, chain 2 of 2, further chain): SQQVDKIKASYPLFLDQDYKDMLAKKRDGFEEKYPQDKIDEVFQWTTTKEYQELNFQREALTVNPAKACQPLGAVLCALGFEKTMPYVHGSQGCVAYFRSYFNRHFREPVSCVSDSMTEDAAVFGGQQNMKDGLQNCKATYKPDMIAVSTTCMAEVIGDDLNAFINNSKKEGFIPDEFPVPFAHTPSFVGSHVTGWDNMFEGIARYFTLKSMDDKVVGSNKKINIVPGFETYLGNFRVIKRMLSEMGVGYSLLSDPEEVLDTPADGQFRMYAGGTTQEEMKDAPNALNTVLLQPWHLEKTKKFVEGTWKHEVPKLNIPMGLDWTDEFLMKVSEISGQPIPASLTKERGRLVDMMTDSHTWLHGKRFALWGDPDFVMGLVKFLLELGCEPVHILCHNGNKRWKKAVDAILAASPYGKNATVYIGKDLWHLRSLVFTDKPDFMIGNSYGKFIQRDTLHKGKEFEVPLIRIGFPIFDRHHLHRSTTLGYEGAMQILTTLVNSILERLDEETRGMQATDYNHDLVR

An Ammonia of 179 nmol/mL and an RFU (Relative Fluorescence Units, ammonia detection) of 1300 RFU were found for “NifH protein purified from Azotobacter vinelandii (from UniProt P00459 2-290) (enzyme)” in this work.
An Ammonia of 200 nmol/mL and an RFU (Relative Fluorescence Units, ammonia detection) of 1460 RFU were found for “NifH purified from recombinant Saccharomyces cerevisiae GF2 cells (mlsSOD2-his8-NifH, A. vinelandii NifH sequence) (from UniProt P00459 1-290) (enzyme)” in this work.

From patent EP2848684A1
